From patent US20200247855A1 (published 2020)

What was measured:
[1] = biological target: T1, CXCL10_HUMAN (human, UniProt P02778 22-98); assay: YSD FACS
T1 sequence: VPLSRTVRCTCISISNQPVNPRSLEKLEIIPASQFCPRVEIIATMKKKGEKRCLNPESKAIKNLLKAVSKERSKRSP

[2] = biological target: T1, CXCL10_HUMAN; assay: YSD
[3] = biological target: T2, P985_AMBPA (Amblyomma parvum, UniProt A0A023FT45 25-132); assay: BLI
T2 construct: His-tagged in BLI
T2 sequence: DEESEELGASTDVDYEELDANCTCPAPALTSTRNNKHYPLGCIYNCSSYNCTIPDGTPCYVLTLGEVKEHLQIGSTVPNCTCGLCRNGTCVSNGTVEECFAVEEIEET

[4] = biological target: T3, P991_AMBCA (Amblyomma cajennense, UniProt A0A023FFD0 29-136); assay: BLI
T3 construct: His-tagged in BLI
T3 sequence: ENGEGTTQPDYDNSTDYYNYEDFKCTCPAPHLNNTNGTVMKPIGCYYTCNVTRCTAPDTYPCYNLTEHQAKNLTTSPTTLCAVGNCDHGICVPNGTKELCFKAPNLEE

[5] = biological target: T4, CXCL9_HUMAN (human, UniProt Q07325 23-125); assay: YSD FACS
T4 sequence: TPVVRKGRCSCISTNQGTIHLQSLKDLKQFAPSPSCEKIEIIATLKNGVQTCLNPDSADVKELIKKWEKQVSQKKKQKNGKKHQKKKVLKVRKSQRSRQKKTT

[6] = biological target: T5, P546_AMBCA (Amblyomma cajennense, UniProt A0A023FBW7 22-118); assay: BLI
T5 construct: His-tagged in BLI
T5 sequence: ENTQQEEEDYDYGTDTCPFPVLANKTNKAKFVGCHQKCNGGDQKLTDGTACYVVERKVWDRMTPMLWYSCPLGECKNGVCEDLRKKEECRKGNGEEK

[7] = biological target: T6, P974_AMBCA (Amblyomma cajennense, UniProt A0A023FDY8 22-118); assay: BLI
T6 construct: His-tagged in BLI
T6 sequence: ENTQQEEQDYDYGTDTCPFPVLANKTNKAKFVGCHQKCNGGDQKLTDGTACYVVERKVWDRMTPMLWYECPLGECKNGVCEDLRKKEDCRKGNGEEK

[8] = biological target: CXCL12_HUMAN (human, UniProt P48061 22-89); assay: YSD FACS
[9] = biological target: T7, CXCL8_HUMAN (human, UniProt P10145 28-99); assay: YSD
T7 sequence: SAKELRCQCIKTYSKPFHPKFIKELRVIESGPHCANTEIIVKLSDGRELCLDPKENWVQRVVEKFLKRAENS

[10] = biological target: T8, P672_RHIPU (Rhipicephalus pulchellus, UniProt L7MC74 22-125); assay: BLI
T8 sequence: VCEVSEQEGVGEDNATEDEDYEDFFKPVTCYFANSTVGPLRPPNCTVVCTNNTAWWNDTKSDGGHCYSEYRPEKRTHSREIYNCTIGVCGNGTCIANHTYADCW

[11] = biological target: T9, CCL25_HUMAN (human, UniProt O15444 24-150); assay: YSD
T9 sequence: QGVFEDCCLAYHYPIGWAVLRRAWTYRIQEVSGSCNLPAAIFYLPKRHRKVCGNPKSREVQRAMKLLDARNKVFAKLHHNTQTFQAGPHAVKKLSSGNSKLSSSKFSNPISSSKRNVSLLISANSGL

Sequence of CXCL12_HUMAN (P48061 22-89 limits assumed): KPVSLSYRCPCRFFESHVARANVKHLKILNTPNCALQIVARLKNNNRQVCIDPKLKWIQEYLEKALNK

B1: P1096_IXORI (other)
chain: HTTVTGSVEGKPNNPNEDIEVSYCRMNCTVENGVSSACSGDCVCVHRDNEPNGICVEITYFGDFGDPSQDPSIDEAAPRESVSKRRSNGES
notes: yeast surface display
In the case of B1, the “% cells over threshold fluorescence” value [1] is reported as 50%.

B2: P1224_IXORI (other)
chain: SDLCKMEAESSPFKLPQSSLLDAPDEEGCKYQLLFVEAEGPLVVNCTKDCPNGKIRTVVEGELCIAMVKTSSSGEATGLVGSCKRGSCVKKDDPCRTFTLSEEGDDDEEDEEEEEDEEEDEEEDEEEEEEDEEEED
notes: yeast surface display
B2: binds [2].

B3: CCL24_HUMAN (ligand)
chain: VVIPSPCCMFFVSKRIPENRVVSYQLSSRSTCLKAGVIFTTKKGQQFCGDPKQEWVQRYMKNLDAKQKKASPRARAVA
B3 gave a Kd [3] of 41 nM and a Kd [4] of 6.54 nM.

B4: P1126_AMBCA (other)
chain: KPQILQRTDKSTDSEWDPQTCPETCIPSKNITCSDGCVCVKLGEEEEGTCFNMTGVDWLGSPSDD
notes: yeast surface display
For B4, the “% cells over threshold fluorescence” value [5] was 56%.

B5: P1219_IXORI (other)
chain: ASLAKETEDTTLPARALVDSPDSDNCSSPQLPYFDELTYMPLGFLAVNCTKTCPVGKNGTVVNGNKCIVTWSILDVSTITVLVGSCKNGYCISDGSSECRNITLAGEDSQEEEEEAEEDEEEDDGDEEEDEEEDEEENDDD
notes: yeast surface display
B5: binds [2].

B6: P1283_IXORI (other)
chain: KEPEDTTLPPGALVDSPDSDNCSSPHLPYFDETTNMWMGFLAVNCTKKCPVGKHVTVVDGNKCIGTWSFLDELTITVLVGSCKDGFCETDGSSECRNITLAEEDSQEEEGAAAEEEDEEDEEDEEEEEAEEEREDDHDDA
notes: yeast surface display
B6: binds [2].

B7: CCL27_HUMAN (ligand)
chain: FLLPPSTACCTQLYRKPLSDKLLRKVIQVELQEADGDCHLQAFVLHLAQRSICIHPQNPSLSQWFEHQERKLHGTLPKLNFGMLRKMG
B7 was tested, and the Kd [4] was 38.9 nM.

B8: P458_IXORI (other)
chain: GSKQPGAAGSSSDSVEAVFCPTNCTKGTNGAWSGCSDDCICVHVGENTEGSCMKFSGDYDYPTPEA
notes: yeast surface display
With B8 the “% cells over threshold fluorescence” value [5] was 37%.

B9: P1124_IXORI (other)
chain: DSKGTSDSQDSTKSIKVDFCETNCTKTDGGWTGCTGDCICVSVGDSIEGRCMDFG
notes: yeast surface display
B9 was tested, and the “% cells over threshold fluorescence” value [5] was 31%.

B10: CCL22_HUMAN (ligand)
chain: GPYGANMEDSVCCRDYVRYRLPLRVVKHFYWTSDSCPRPGVVLLTFRDKEICADPRVPWVKMILNKLSQ
B10 gave a Kd [6] of 27 nM, a Kd [7] of 16.5 nM and a Kd [4] of 3.97 nM.

B11: P1095_IXORI (other)
chain: HSPVAGSEVQKLTSDPNDDIDVSYCGMNCTVVNGKSDECSENCKCLHEGDDPKGICVAITYFGDWGDPNDDPKINEATPQTQIFEKKRK
notes: yeast surface display
B11 was tested, and the “% cells over threshold fluorescence” value [8] was 47%.

B12: P1030_AMBPA (other)
chain: GPPSIPGNESIPGCGDAGTTTAPEDNPKHYGTLTDKKGCTLPIIGTWMTAVDHQHLQGTRGERRGPTGKVNLPASCRKNCHGRQEILRDGIPCRKVVGNPKGSKKHLKSGCLRGKCLAGQCVNDGRRISCYVPRNITDTEPTPGLLAE
notes: yeast surface display
B12: binds [9].

B13: P1080_IXORI (other)
chain: SAGSKGSSAPQSSGDSVVAEFCDTNCTMKKDGKWTECNGDCFCVHVGNETVGRCMRLDGDYDYTSSKTTRRNKKTRNGLCRLDRNRTTVDYPERNTREP
notes: yeast surface display
With B13 the “% cells over threshold fluorescence” value [5] was 49% and the “% cells over threshold fluorescence” value [8] was 53%.

B14: P1086_IXORI (other)
chain: GSKGQRASQVSETSITAEFCDTSCTQGTDKTWSGCSGDCFCVHVGNDTEGRCMRWDGDYPSAEEEE
notes: yeast surface display
For B14, the “% cells over threshold fluorescence” value [5] was 54%.

B15: P1074_IXORI (other)
chain: GSKESSAHQSSDDSIKAEFCDAKCTMKTDGKWTQCHGGCFCVHVGNETEGRCMRLDGDYDYPSTQPEE
notes: yeast surface display
In the case of B15, the “% cells over threshold fluorescence” value [5] is reported as 35%.

B16: CCL23_HUMAN (ligand)
chain: RVTKDAETEFMMSKLPLENPVLLDRFHATSADCCISYTPRSIPCSLLESYFETNSECSKPGVIFLTKKGRRFCANPSDKQVQVCMRMLKLDTRIKTRKN
In the case of B16, the Kd [4] is reported as 5.58 nM and the Kd [10] is reported as 10 nM.

B17: P1220_IXORI (other)
chain: GSTPSAMKTEDILKVLGSTSSLENHTDSSHCRYQELLDITKNIENAGFLAINCQRSCPNGKQTMVEGYGCIFKIKHATKRGKVKVKEGSCRKGACVRGSTRPPWRLLVLLGESKEEEFL
notes: yeast surface display
B17: binds [11].

B18: P1134_IXORI (other)
chain: NEEVFTVEYCGMNCTQKSDGTWTECSGKNKDCRCYHESDAREGLCLSTEYTDFSQFETPSNSDLEAATPRPRKTLYPVRNPHGPKTRGLGYDKRILRDRVKFLI
notes: yeast surface display
With B18 the “% cells over threshold fluorescence” value [1] was 66%.

B19: P1100_IXORI (other)
chain: GSKGSSASQSSDNSVVAKFCDTNCTINEGGKWTECKGGCFCVHVGNETVGRCMKLDGDYDYPSPKPEE
notes: yeast surface display
In the case of B19, the “% cells over threshold fluorescence” value [5] is reported as 55%.

B20: P993_AMBPA (other)
chain: HRHYDPNEPCLIAGLKTPRDALPAGCRYDCMIKKNQKLRDGLLCLDVPEKVVKRMVNYLNYSCPLGTCRKGICKRKHRNVRCQKYPVFYMSPPK
notes: yeast surface display
B20: binds [9].
